Test results: patent US20190248887A1

Biological target: synthetic peptide representing amino acids 24 through 39 of FXYD5 (Seq ID No. 1), coupled to maleimide activated BSA (Homo sapiens)
Experiment: chemiluminescent ELISA, BSA-coupled peptide 24-39 coated, streptavidin-HRP detection; printed as relative binding affinity

Substance | EC50 [nM]
N20-linker-biotin conjugate (goat polyclonal anti-FXYD5 N20, sc-30602, coupled via SM(PEG)24 to biotin) (antibody) | 3.75
L15-linker-biotin conjugate (goat polyclonal anti-FXYD5 L15, sc-30603, coupled via SM(PEG)24 to biotin) (antibody) | 38.2
